Molecular target: SlTAGL1-His (Solanum lycopersicum, UniProt E9JUM2 1-269)
Experiment: EMSA; not given; Beyotime EMSA/Gel-Shift kit and Thermo LightShift Chemiluminescent EMSA kit
Conditions: protein: recombinant; tags: His (pET28a); chain copies: 2; label: biotin 3'; blunt

Chain of SlTAGL1-His (E9JUM2 entry or part of it): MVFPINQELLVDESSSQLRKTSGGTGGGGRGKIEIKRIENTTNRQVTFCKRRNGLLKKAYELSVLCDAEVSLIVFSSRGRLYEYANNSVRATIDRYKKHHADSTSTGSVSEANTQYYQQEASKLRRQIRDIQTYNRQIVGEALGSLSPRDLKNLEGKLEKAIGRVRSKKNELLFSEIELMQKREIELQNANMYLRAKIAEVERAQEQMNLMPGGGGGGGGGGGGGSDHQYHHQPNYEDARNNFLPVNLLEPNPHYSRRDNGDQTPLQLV

B1: SlPSY1 promoter probe (dsDNA)
DNA 1: GAATTGAGCACTTGGCTTTTGTATATAGCTTCTATGTGTACCAAAATT
DNA 2: AATTTTGGTACACATAGAAGCTATATACAAAAGCCAAGTGCTCAATTC
B1: binds.

Source: PMC12581942, “EIN3-binding F-box protein SlEBF3 modulates resistance against Botrytis cinerea and carotenoid biosynthesis by degradation of BBX20 in tomato”
